Source: paper PMC5650172, “Impact of the structural integrity of the three-way junction of adenovirus VAI RNA on PKR inhibition”

Legend:
PKR1-169 (tandem dsRBMs) = PKR1-169 (tandem dsRBMs) (human, UniProt P19525 1-169); assay: SEC co-elution, native PAGE; 5 mM Mg2+; 1.1-fold excess RNA; complex also studied by SAXS; […], room temperature 10 min, […]; SEC: 50 mM Tris pH 7.5, 100 mM NaCl, 5 mM MgCl2; details: protein: recombinant; three-way junction RNA, apical and central stem-loops
PKR (full length) = PKR (full length) (human, UniProt P19525 1-551); assay: EMSA; 5 mM Mg2+; Kd only in figure inset; […], room temperature 10 min, […]; SEC: 50 mM Tris pH 7.5, 100 mM NaCl, 5 mM MgCl2; details: protein: recombinant; three-way junction RNA, apical and central stem-loops
PKR (full length), sequence (P19525 whole entry): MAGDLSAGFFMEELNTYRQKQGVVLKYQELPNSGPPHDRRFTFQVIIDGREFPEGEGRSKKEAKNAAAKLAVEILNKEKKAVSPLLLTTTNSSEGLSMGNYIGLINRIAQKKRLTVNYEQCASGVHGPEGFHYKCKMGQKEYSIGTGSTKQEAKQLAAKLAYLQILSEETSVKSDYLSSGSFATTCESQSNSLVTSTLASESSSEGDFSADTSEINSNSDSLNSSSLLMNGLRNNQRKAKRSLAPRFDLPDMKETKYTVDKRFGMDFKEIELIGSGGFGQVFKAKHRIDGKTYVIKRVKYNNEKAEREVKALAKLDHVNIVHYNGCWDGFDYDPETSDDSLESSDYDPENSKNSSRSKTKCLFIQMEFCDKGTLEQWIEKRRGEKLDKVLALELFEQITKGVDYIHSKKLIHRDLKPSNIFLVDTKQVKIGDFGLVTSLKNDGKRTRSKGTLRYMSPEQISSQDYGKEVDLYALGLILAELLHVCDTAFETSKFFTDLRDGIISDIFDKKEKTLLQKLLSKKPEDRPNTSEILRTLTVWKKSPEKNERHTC

PKR1-169 (tandem dsRBMs), sequence (P19525 1-169): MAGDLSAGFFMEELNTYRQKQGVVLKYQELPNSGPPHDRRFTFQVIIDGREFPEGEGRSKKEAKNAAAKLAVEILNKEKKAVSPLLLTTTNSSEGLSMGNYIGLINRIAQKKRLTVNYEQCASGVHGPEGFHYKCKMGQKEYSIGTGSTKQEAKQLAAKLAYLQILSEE

B1: VAI dTS (wt RNA) (structured_RNA)
RNA: GGCAAGGGUAUCAUGGCGGACGACCGGGGUUCGAACCCCGGAUCCGGCCGUCCGCCGUGAUCCAUGCGGUUACCGCCCGCGUGUCGAACCCAGGUGUGCC
PKR1-169 (tandem dsRBMs)
  binding result: binds
PKR (full length)
  binding result: binds
